Source: publication PMC4167758

How the values were obtained:
SelK U92C (Homo sapiens) [1] = target: SelK U92C (Homo sapiens) (UniProt Q9Y6D0); assay: redox titration with gel shift on non-reducing SDS-PAGE
SelK U92C (Homo sapiens) [2] = target: SelK U92C (Homo sapiens) (UniProt Q9Y6D0); assay: electrospray ionization mass spectrometry
SelK U92C (Homo sapiens) [3] = target: SelK U92C (Homo sapiens) (UniProt Q9Y6D0); assay: SDS-PAGE under non-reducing conditions
SelK U92S (Homo sapiens) = SelK U92S (Homo sapiens) (UniProt Q9Y6D0); assay: SDS-PAGE at high protein concentration

Question: How did the stoichiometry N (SelK U92C (Homo sapiens) [1]) turn out when “SelK U92C (from UniProt Q9Y6D0 2-94) (natural protein)” was run?
Answer: The stoichiometry N was 2.

Question: What about the stoichiometry N (SelK U92C (Homo sapiens) [2]) of the same substance?
Answer: The stoichiometry N was 2.

Question: What about the stoichiometry N (SelK U92C (Homo sapiens) [3]) of the same substance?
Answer: The stoichiometry N was 2.

Question: For “SelK U92S (from UniProt Q9Y6D0 2-94) (natural protein)”, which stoichiometry N (SelK U92S (Homo sapiens)) is on record?
Answer: The stoichiometry N was 2.
